By Kd is commonly meant the free concentration of one partner at which half of the binding sites on the other are occupied at equilibrium, for simple one-to-one binding. Low values mean tighter binding, high ones weaker binding.

Assay [1] addresses SARS-CoV-2 spike receptor binding domain (SARS-CoV-2) (UniProt P0DTC2). The experiment in a line: BLI.
Assay [2] has the same target.

In assay [1], LCB3 (designed binder) gave a dissociation constant (Kd) of less than 1 nM. LCB1 (designed binder) registered a Kd in assay [1] of less than 1 nM. Moreover, in assay [2], the other amounted to 23.5 pM.
